Assay [1] deals with ZIKV NS1 β-ladder domain (NS1 172-352), strain Suriname (Zika virus, strain Suriname). Kind of assay: AUC; sedimentation velocity, 2.95 mg/mL, 20 mM Hepes pH 7.4, 150 mM NaCl, 20 °C, 53,000 rpm, interference optics, continuous c(s) model in SEDFIT.
In assay [2] the target is ZIKV NS1 β-ladder domain (NS1 172-352) T233A mutant (Zika virus, strain Suriname). Described as above.

“ZIKV NS1 β-ladder domain (NS1 172-352), strain Suriname (domain or fragment)”: in assay [1], the percent of the protein in the monomeric state turned out to be 7.8% and the stoichiometry N was determined as 2.

In assay [2], “ZIKV NS1 β-ladder domain (NS1 172-352) T233A mutant (domain or fragment)” gave a percent of the protein in the monomeric state above 49% and a stoichiometry N of 2.

The record behind these values is PMC5309781.
